Measurements from patent publication US20130266566A1 (AbbVie / Abbott, published 2013).

T1: mouse PAI-1 (mouse, UniProt P22777 24-401)
T1 sequence: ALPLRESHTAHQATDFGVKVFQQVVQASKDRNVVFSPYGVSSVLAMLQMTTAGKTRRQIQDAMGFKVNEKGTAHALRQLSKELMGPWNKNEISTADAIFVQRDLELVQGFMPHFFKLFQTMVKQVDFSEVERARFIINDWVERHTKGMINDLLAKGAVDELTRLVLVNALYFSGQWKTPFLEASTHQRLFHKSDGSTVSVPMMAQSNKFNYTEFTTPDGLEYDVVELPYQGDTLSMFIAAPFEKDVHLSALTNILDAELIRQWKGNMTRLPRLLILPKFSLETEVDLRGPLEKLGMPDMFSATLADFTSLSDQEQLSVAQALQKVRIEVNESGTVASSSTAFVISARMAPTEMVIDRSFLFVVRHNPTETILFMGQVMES

T2: rat PAI-1 (rat, UniProt P20961 24-402)
T2 sequence: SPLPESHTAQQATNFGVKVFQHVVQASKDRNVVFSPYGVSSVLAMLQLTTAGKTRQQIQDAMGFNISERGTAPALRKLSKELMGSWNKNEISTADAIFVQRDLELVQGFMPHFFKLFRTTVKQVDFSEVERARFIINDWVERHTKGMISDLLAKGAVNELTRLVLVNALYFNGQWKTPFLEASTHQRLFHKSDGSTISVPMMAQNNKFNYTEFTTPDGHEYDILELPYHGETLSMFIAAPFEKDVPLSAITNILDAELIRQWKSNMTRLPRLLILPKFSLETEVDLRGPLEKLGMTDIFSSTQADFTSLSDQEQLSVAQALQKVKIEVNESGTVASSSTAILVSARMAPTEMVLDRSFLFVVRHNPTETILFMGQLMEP

B1: rabbit PAI-1 (other)
chain: SYPHQPQLTTAGETQQQIQAAMRFKIDEQSTAPALRHLHKELMGPWNKDEISTTDAIFVQRDLKLVQGFMPHFFRLFRTTVKQVDFSDVQRARFIINDWVERHTKGMISDLLGEGAMDQLTRLLLVNALYFNGQWKTPFSKSGTHHRLFHKSDGSTISVPMMAQTNKFNYTEFLTPDGHYYDILELPYHGETLSMFIAAPYEKQVPLSALTNILSAQLISQWKGNMTRVTRLLVLPKFSLESEVDLRAPLENLGMTDMFRPGQADFSNLSDQELLHVSRALQKVKIEVNESGTMASSSTVILVSARMAPEEIIMDRPFLFVVRHNPTGTILFLGQVMEL

What was measured:
mouse PAI-1 [1] = molecular target: T1, mouse PAI-1; assay: cell-based or functional assay
rat PAI-1 [2] = molecular target: T2, rat PAI-1; assay: cell-based or functional assay
cynomolgus PAI-1 [3] = molecular target: T3, cynomolgus PAI-1 (cynomolgus, UniProt P05121 24-402 (human entry), limits assumed); assay: cell-based or functional assay
mouse PAI-1 [4] = molecular target: T1, mouse PAI-1; assay: competition ELISA, IgG on plate, biotinylated active human PAI-1 against titrated unlabelled competitor
rat PAI-1 [5] = molecular target: T2, rat PAI-1; assay: as above
rabbit PAI-1 = molecular target: B1; assay: as above
latent human PAI-1 = molecular target: T4, latent human PAI-1 (human, UniProt P05121 24-402); assay: as above
T4 construct: also called latent PAI-1

rat PAI-1 [6] = molecular target: T2, rat PAI-1; assay: cell-based or functional assay; remark: listed apart in the source
[7] = molecular target: T5, active human PAI-1, recombinant, wild-type, non-glycosylated (E. coli) (human, UniProt P05121 24-402); assay: cell-based or functional assay
cynomolgus PAI-1 [8] = molecular target: T3, cynomolgus PAI-1; assay: cell-based or functional assay; remark: listed apart in the source
mouse PAI-1 [9] = molecular target: T1, mouse PAI-1; assay: cell-based or functional assay; remark: listed apart in the source
rat PAI-1 [10] = molecular target: T2, rat PAI-1; assay: cell-based or functional assay; remark: listed apart in the source
[11] = molecular target: T5, active human PAI-1, recombinant, …; assay: cell-based or functional assay; remark: listed apart in the source
mouse PAI-1 [12] = molecular target: T1, mouse PAI-1; assay: cell-based or functional assay; remark: listed apart in the source
[13] = molecular target: T6, Antibody 16 IgG1, not germlined; assay: competition binding assay: Antibody 16 IgG adsorbed to the plate, biotinylated active human PAI-1 plus a titration of the unlabelled competitor, streptavidin-Europium detection
T6 construct: IgG1; also called Ab 16

| Chromogenic IC50 ratio mouse/human (mouse PAI-1 [1]) | Chromogenic IC50 ratio rat/human (rat PAI-1 [2]) | Chromogenic IC50 ratio cyno/human (cynomolgus PAI-1 [3]) | IC50 ratio mouse/wt (mouse PAI-1 [4]) | IC50 ratio rat/wt (rat PAI-1 [5]) | IC50 ratio rabbit/wt (rabbit PAI-1) | IC50 ratio latent/wt (latent human PAI-1) | IC50, cyno chromogenic assay (FIG. 2b) (cynomolgus PAI-1 [8]) | HT-1080 Exo PAI-1 (IC50 in nM) mouse (mouse PAI-1 [9]) | Binder | other results |
| --- | --- | --- | --- | --- | --- | --- | --- | --- | --- | --- |
| 0.9 fold | 1.8 fold | 0.5 fold | 7.6 fold | 2.3 fold | 9.1 fold | 7.5 fold |  |  | Antibody 20 IgG1, not germlined (antibody, V domains shown, IgG1; also called Ab 20) VH: QVQLQQSGAEVKKPGSSVKVSCKASGGTFSSYAISWVRQAPGQGLEWMGGIIPTFGTANYAQKFQGRVTITADESTSTAYMELSSLRSEDTAVYYCAREKRQWLEGHFDYWGRGTLVTVSS VL: DIQMTQSPSTLSASVGDRVTITCRASEGIYHELAWYQQKPGKAPKLLIYRASSLASGVPSRFSGSRSGTEFTLTISSLQPDDFATYYCQQYSDYPLTFGGGTKVEIK |  |
| 3.3 fold | 5.4 fold |  | 6.1 fold | 1.2 fold | 85 fold | 6.8 fold |  |  | Antibody 27 IgG1, not germlined (antibody, V domains shown, IgG1; also called Ab 27) VH: QVQLQQSGAEVKKPGSSVKVSCKASGGAFSSYAISWVRQAPGQGLEWMGGIIPTFGTANYAQKFQGRVTITADESTSTAYMELSGLRSEDTAVYYCAREKRQWLEGHFDYWGRGTPVTVSS VL: DIQMTQSPSFLSASIGDRVTITCRASEGIYHNLAWYQQKPGKAPKLLIYRASSLASGAPSRFSGSGSGTDFTLTISSLQPDDFATYYCQQYSNYPLTFGGGTKLEIK |  |
|  |  |  |  |  |  |  |  |  | PICK167_A01-fgl IgG1 (antibody, V domains shown) VH: QVQLVQSGAEVKKPGSSVKVSCKASGGTFSSYAISWVRQAPGQGLEWMGGIIPTFGTANYAQKFQGRVTITADESTSTAYMELSSLRSEDTAVYYCARERRQWLEGHFDYWGRGTLVTVSS VL: DIQMTQSPSTLSASVGDRVTITCRASEGIYHNLAWYQQKPGKAPKLLIYKASSLASGVPSRFSGSRSGTEFTLTISSLQPDDFATYYCQQYSNYPLTFGGGTKVEIKR | pIC50, HT1080 plasminogen activation assay (rat PAI-1 [6]): 7.64 pIC50; pIC50, HT1080 plasminogen activation assay [7]: 7.87 pIC50 |
|  |  |  |  |  |  |  | 0.8 nM | 17.6 nM | Antibody 16 scFv (scFv) QVQLVQSGAEVKKPGSSVKVSCKASGGTFSSYAISWVRQAPGQGLEWMGGIIPTFGTANYAQKFQGRVTITADESTSTAYMELSSLRSEDTAVYYCAREKRQWLEGHFDYWGRGTLVTVSSDIQMTQSPSTLSASVGDRVTITCRASESIYHSLAWYQQKPGKAPKLLIYKASSLASGVPSRFSGSRSGTEFTLTISSLQPDDFATYYCQQYSNYPLTFGGGTKVEIK | Chromogenic (IC50 in nM) mouse (mouse PAI-1 [1]): 4.3 nM; Chromogenic (IC50 in nM) rat (rat PAI-1 [2]): 5.6 nM; IC50, human chromogenic assay (FIG. 2a) [7]: 3.6 nM; HT-1080 Exo PAI-1 (IC50 in nM) rat (rat PAI-1 [10]): 52.6 nM; HT-1080 Exo PAI-1 (IC50 in nM) human [11]: 16.9 nM |
|  |  | 0.3 fold |  |  |  |  | 0.8 nM | 26.2 nM | Antibody 08 scFv (scFv) QVQLVQSGAEVKKPGSSVKVSCKASGGTFSSYAISWVRQAPGQGLEWMGGIIPTFGTANYAQKFQGRVTITADESTSTAYMELSSLRSEDTAVYYCARERRQWLEGHFDYWGRGTLVTVSSDIQMTQSPSTLSASVGDRVTITCRASEGIYHNLAWYQQKPGKAPKLLIYKASSLASGVPSRFSGSRSGTEFTLTISSLQPDDFATYYCQQYSNYPLTFGGGTKVEIK | Chromogenic (IC50 in nM) cyno (cynomolgus PAI-1 [3]): 1 nM; IC50, mouse chromogenic assay (FIG. 2d) (mouse PAI-1 [12]): 2.6 nM |
|  |  |  |  |  |  |  |  |  | B1 | IC50 (read off the curve) [13]: ~3 nM |
